{
  "source": "IntAct's records for PubMed 21115843",
  "target": "notc1_mouse Notch1 (UniProt Q01705)",
  "data": [
    {"substance": "Presenilin-1 (Homo sapiens) (from UniProt P49768) D385A", "values": [
      {"measurement": "effect of a mutation on the interaction", "result": "disrupting interaction"}
    ]}
  ]
}
